The source of these data is patent EP4537907A1 (Enthera S.r.l., dated 2025).

In assay [1] the target is T1, mouse CD248 expressed on the cell membrane of transiently transfected HEK 293 cells (mouse, UniProt Q91V98 18-765).
T1 construct: whole, on cells; also called mouse CD248+ cells
T1 sequence (looked up): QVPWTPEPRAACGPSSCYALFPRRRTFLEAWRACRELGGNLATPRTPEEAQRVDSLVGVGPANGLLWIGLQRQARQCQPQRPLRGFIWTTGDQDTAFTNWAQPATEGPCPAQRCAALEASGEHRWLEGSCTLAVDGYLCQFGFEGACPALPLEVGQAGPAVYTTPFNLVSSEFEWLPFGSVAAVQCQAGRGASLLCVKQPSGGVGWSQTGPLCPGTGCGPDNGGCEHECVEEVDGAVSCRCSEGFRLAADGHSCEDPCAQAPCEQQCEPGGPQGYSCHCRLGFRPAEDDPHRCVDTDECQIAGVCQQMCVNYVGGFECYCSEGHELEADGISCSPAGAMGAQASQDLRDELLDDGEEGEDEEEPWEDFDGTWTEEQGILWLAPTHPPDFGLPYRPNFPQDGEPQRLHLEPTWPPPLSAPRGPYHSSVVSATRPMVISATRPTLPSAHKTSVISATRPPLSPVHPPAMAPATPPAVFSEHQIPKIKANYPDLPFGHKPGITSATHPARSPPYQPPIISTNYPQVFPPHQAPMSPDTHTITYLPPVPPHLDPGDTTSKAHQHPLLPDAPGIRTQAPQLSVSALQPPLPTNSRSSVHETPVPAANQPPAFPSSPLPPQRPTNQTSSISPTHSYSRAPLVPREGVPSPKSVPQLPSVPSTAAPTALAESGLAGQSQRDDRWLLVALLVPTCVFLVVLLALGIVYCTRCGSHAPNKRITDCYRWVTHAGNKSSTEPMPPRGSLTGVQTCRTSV
Kind of assay: flow cytometry on transiently transfected HEK 293 cells, secondary anti-human IgG, antibody concentration series.

Assay [2] addresses T2, human CD248 expressed on the cell membrane of transiently transfected HEK 293 cells (human, UniProt Q9HCU0 18-757).
T2 construct: whole, on cells; also called human CD248+ cells; CD248-positive cells
T2 sequence (looked up): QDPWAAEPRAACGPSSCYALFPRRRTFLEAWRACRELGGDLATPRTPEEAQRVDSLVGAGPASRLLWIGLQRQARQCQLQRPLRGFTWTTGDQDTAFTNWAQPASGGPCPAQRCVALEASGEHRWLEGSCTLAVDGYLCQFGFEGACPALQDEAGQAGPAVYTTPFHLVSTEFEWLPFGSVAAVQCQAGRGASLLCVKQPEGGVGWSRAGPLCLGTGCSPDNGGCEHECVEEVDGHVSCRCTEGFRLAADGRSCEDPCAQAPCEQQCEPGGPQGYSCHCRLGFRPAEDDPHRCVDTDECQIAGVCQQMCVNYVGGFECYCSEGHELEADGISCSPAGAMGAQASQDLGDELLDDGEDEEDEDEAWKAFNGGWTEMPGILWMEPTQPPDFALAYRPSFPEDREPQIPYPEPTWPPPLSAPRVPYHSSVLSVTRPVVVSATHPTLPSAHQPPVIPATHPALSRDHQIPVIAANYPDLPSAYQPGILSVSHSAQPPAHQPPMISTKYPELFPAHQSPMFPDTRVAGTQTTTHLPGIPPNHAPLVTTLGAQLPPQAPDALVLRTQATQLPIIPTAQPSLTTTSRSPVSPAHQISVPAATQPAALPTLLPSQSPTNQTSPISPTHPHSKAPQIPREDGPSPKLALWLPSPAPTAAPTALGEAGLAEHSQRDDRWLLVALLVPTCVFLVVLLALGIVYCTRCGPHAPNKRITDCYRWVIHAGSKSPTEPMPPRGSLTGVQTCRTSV
The assay is described as above.

The target in assay [3] is T3, recombinant human CD248 (internally produced) (human, UniProt Q9HCU0 18-687, limits assumed, biotinylated in the inhibition ELISA).
T3 construct: Soluble recombinant protein; also called human recombinant CD248; biotinylated CD248 (internally produced)
T3 sequence (looked up): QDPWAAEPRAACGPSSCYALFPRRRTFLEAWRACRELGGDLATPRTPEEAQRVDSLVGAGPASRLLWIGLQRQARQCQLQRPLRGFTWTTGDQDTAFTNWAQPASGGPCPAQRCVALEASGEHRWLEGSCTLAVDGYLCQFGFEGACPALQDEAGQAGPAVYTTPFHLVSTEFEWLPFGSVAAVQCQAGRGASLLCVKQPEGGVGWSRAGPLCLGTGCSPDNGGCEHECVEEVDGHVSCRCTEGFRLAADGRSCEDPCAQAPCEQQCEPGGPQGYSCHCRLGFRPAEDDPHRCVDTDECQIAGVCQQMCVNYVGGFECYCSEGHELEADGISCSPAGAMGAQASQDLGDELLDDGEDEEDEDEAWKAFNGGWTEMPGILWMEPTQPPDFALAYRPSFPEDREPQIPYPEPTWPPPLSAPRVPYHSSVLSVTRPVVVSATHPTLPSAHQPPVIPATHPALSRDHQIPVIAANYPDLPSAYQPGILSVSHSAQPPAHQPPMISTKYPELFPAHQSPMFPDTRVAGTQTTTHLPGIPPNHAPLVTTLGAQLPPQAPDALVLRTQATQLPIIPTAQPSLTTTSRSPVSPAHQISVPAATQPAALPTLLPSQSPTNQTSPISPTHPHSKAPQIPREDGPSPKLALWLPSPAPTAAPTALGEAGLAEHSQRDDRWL
Kind of assay: BLI (Octet platform, BLItz System), mAb captured via Fc on AHC biosensor, soluble antigen at different concentrations.

Assay [4] concerns the target T4, recombinant mouse CD248 (internally produced) (mouse, UniProt Q91V98 18-695, limits assumed).
T4 construct: also called murine recombinant CD248; Murine CD248
T4 sequence (looked up): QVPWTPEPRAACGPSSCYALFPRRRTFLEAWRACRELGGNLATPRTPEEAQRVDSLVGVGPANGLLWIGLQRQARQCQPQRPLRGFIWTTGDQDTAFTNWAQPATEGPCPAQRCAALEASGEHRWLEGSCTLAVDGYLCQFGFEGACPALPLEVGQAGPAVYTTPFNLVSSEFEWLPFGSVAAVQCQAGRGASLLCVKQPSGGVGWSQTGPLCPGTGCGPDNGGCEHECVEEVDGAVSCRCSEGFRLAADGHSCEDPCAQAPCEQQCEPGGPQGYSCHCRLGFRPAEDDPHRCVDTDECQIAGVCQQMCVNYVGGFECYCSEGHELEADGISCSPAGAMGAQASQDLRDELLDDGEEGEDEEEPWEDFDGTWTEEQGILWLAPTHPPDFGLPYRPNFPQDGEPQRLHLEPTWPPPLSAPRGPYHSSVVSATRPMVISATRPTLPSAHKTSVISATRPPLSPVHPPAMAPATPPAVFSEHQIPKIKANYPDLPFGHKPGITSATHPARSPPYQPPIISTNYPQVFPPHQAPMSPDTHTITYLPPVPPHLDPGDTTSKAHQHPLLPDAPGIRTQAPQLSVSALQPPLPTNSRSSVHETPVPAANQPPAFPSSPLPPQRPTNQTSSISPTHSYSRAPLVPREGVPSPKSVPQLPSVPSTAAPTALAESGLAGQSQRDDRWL
Described as above.

Assay [5] concerns the target T5, irrelevant antigen expressed on HEK 293 cells after transient transfection (human).
T5 construct: Negative control antigen; also called irrelevant human antigen; irrelevant Ag+ cells
The experiment in a line: flow cytometry on HEK 293 cells transiently transfected with an irrelevant antigen (negative control), secondary anti-human IgG.

The target in assay [6] is T3, recombinant human CD248 (internally …). The experiment in a line: competition ELISA: purified IgG4 (S228P/L235E) with biotinylated human CD248, added to immobilised human IGFBP5, Streptavidin-HRP.

B1: YU1025-B07 (antibody, V domains shown)
VH: QVQLVQSGGGVVQPGRSLRLSCAASGFTFSSYAMHWVRQAPGKGLEWVAVISYDGSNKYYADSVKGRFTISRDNSKNTLYLQMNSLRAEDTAVYYCARTKARWFGVTTYMDVWGKGTLVTVSS
VL: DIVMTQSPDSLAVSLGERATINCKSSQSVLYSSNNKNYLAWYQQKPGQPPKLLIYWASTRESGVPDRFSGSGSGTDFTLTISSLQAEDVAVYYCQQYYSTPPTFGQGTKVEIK
notes: Tested as full human IgG4 carrying the S228P/L235E mutations
As to B1, the concentration for a half-maximal effect (EC50) in assay [1] came to 0.0216 µg/mL; in assay [2], 0.0236 µg/mL; in assay [5], 1.68 µg/mL. The figures for the dissociation constant Kd in assay [3] and in assay [4] were 11.7 nM and 14.2 nM, respectively. Also, the IC50 in assay [6] came to 19.2 µg/mL.

B2: YU1024-G01 (antibody, human IgG4, V domains shown)
VH: QVQLQESGGGVVQPGRSLRLSCAASGFTFSSYAMHWVRQAPGKGLEWVAVISYDGSNKYYADSVKGRFTISRDNSKNTLYLQMNSLRAEDTAVYYCARNNHPRGERLPQYWGQGTLVTVSS
VL: DIQLTQSPSSLSASVGDRVTITCRASQSVGSYLNWYQHKPGKAPKLLIYVASRLQSGVPSRFSGSGSGTDFTLTINSLQPEDFATYYCQQSYSTPLTFGGGTKVEIK
notes: as for B1
In the case of B2, the EC50 is roughly 0.00985 µg/mL in assay [1], 0.0121 µg/mL in assay [2] and 2.11 µg/mL in assay [5]. Moreover, the results for the equilibrium dissociation constant (Kd) in assay [3] and in assay [4] were 3.78 nM and 3.91 nM, respectively. The IC50 in assay [6] worked out at 4.7 µg/mL.

B3: YU1023-B03 (antibody, human IgG4, V domains shown)
VH: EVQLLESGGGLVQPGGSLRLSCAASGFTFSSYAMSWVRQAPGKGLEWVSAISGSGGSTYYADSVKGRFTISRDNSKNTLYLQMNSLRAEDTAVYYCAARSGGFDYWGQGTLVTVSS
VL: DVVMTQSPLSLPVTPGEPASISCRSSQSLLHSNGYNYLDWYVQKPGQSPQRLIYFTSNRASGVPDRFSGSGSGTDFTLKISRVEAEDVGVYYCMQSIQLPRTFGQGTKVEIK
notes: as for B1
Consider B3, for which the EC50 in assay [1] stood at 0.0184 µg/mL; in assay [2], 0.0401 µg/mL; in assay [5], 3.66 µg/mL. Further, the Kd is 18.6 nM in assay [3] and 7.99 nM in assay [4]. In addition, the IC50 in assay [6] is 47.6 µg/mL.

B4: YU1023-A02 (antibody, human IgG4, V domains shown)
VH: QVQLVESGPGLVKPSQTLSLTCTVSGGSISSGGYYWSWIRQHPGKGLEWIGYIYYSGSTYYNPSLKSRVTISVDTSKNQFSLKLSSVTAADTAVYYCARVRGRSATYFDYWGQGTTVTVSS
VL: QSVLTQPPSVSGAPGQRVTISCTGSSSNIGAGYDVRWYQQLPGTAPKLLIYANNNRPSGVPDRFSGSKSGTSASLAITGLQTEDEADYYCQSYDISLSGSLFGGGTKLTVL
notes: Tested as full human IgG4 carrying the S228P/L235E mutations; also called YU1023-A02 mAb
Take B4: the EC50 in assay [1] was found to be 0.0388 µg/mL; in assay [2] it was 0.0523 µg/mL; in assay [5], 3.16 µg/mL. Besides, the Kd was 9.94 nM in assay [3] and 10.1 nM in assay [4]. The IC50 in assay [6] amounted to 20.8 µg/mL.

B5: YU1023-E03 (antibody, human IgG4, V domains shown)
VH: EVQLLESGGGVVQPGRSLRLSCAASGFTFSSYAMHWVRQAPGKGLEWVAVISYDGSNKYYADSVKGRFTISRDNSKNTLYLQMNSLRAEDTAVYYCARSIAAAGTRWFDPWGQGTLVTVSS
VL: DIQLTQSPSSVSASVGDRVTITCRASQGISSWLAWYQQKPGKAPKLLIYAASSLQSGVPSRFSGSGSGTDFTLTISSLQPEDFATYYCQQANSFPLTFGGGTKLEIK
notes: Tested as full human IgG4 carrying the S228P/L235E mutations; It was scarcely produced (<0.1 mg/ml)
Turning to B5, the results for the EC50 in assay [1], in assay [2] and in assay [5] were 0.891 µg/mL, 1.49 µg/mL and 3.84 µg/mL, respectively. The IC50 in assay [6] turned out to be 17.4 µg/mL.
